Assay [1] has as its target OX40 on HT1080 OX40 stable cell line (Homo sapiens (Human)) (UniProt P43489).
Assay [2] has the same target. This is another data set of the same source.

Among the data in patent US20210024640A1 are EC50 (read off the curve), IL-8 secretion, antagonist assay control (ligand titration) and EC50 (read off the curve), IL-8 secretion, agonist assay control values, retold here.

Chain of OX40 on HT1080 OX40 stable cell line (Homo sapiens (Human)) (P43489 29-277): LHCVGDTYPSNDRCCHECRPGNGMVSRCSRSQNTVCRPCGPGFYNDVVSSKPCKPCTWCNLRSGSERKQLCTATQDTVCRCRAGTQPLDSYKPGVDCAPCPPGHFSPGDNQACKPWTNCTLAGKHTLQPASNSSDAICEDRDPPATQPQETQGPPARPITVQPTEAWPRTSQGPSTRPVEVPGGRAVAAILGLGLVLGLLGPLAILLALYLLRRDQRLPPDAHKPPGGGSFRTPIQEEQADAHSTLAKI

On to OX40L-Fc (Fc fusion), for which, in assay [1], the EC50 (read off the curve), IL-8 secretion, antagonist assay control (ligand titration) stood at 0.3 nM. In assay [2], this substance yielded an EC50 (read off the curve), IL-8 secretion, agonist assay control of 0.3 nM.
